From patent US20260216326A1 (PROMETHEUS BIOSCIENCES, published 2026)

T1: TL1A in human blood (human, UniProt O95150 72-251, limits assumed)
T1 sequence (looked up): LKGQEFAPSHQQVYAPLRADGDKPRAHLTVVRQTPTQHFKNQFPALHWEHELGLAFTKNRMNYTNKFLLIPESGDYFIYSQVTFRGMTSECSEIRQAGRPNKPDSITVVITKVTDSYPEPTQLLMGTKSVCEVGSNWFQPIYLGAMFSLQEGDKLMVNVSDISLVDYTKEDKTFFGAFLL

T2: TNFSF6 (FasL) (human, UniProt P48023 134-281, limits assumed)
T2 sequence (looked up): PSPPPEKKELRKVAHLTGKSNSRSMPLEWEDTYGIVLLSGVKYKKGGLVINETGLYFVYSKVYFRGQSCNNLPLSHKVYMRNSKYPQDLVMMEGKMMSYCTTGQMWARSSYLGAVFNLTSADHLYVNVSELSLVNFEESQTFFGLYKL

T3: Murine TL1A (mouse, UniProt Q5UBV8 76-252, limits assumed)
T3 construct: also called mouse TL1A
T3 sequence (looked up): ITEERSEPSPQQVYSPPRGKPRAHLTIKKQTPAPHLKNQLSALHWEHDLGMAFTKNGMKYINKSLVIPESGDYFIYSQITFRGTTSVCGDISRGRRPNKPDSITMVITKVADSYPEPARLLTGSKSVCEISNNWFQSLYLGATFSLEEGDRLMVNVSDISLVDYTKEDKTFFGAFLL

T4: human TL1A (human, UniProt O95150 72-251, limits assumed)
T4 construct: also called tumor necrosis factor-like cytokine 1A; TNFSF15
T4 sequence (looked up): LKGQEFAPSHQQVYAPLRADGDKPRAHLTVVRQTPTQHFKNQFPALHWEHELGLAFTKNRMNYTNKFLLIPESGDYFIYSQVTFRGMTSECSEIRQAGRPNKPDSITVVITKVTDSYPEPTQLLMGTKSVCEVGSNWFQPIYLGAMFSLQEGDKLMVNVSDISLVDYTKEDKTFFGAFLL

T5: Cynomolgus TL1A (cynomolgus monkey, UniProt G7PRK8 72-251)
T5 construct: also called cynomolgus monkey TL1A
T5 sequence: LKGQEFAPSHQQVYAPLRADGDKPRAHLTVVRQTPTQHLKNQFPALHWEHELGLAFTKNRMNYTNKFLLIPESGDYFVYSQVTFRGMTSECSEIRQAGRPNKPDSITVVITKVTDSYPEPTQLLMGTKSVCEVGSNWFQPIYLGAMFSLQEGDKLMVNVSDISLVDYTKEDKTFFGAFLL

T6: TNFSF6 (FasL) (human, UniProt P48023 134-281, limits assumed)
T6 sequence (looked up): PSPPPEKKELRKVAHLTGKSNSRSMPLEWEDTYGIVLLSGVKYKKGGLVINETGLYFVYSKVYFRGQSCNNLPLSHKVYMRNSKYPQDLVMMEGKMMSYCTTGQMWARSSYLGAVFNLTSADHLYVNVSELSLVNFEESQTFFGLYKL

T7: cynomolgus monkey TL1A protein (cynomolgus monkey, UniProt G7PRK8 72-251)
T7 sequence: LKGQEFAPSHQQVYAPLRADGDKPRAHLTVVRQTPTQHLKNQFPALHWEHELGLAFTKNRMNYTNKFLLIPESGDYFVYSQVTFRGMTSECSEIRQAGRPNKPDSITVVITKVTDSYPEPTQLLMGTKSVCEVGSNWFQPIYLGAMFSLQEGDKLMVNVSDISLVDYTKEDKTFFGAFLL

T8: recombinant human TL1A protein (tumor necrosis factor-like cytokine 1A) (human, UniProt O95150 72-251, limits assumed)
T8 construct: Recombinant protein used in ELISA, SPR and the TF-1 caspase assay; also called TNFSF15; soluble TL1A
T8 sequence (looked up): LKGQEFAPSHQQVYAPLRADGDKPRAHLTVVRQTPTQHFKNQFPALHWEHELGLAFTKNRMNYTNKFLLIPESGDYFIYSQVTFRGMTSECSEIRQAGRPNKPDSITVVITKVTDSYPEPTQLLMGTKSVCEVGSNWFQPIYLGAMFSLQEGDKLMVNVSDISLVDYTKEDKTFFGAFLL

T9: membrane-bound human TL1A on TNFSF15/HEK293 cells (human, UniProt O95150 1-251)
T9 construct: whole, on cells; also called membrane-associated TL1A
T9 sequence (looked up): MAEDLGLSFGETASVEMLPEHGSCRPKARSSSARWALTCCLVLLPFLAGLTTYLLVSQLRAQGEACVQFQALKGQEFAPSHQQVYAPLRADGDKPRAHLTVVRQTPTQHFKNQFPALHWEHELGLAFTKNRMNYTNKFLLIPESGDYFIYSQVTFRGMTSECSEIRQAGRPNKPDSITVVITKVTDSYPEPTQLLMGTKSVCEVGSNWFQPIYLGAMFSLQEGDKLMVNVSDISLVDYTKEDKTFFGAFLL

T10: rat recombinant TL1A protein (rat, UniProt Q8K3Y7 76-252, limits assumed)
T10 construct: also called rat TL1A
T10 sequence (looked up): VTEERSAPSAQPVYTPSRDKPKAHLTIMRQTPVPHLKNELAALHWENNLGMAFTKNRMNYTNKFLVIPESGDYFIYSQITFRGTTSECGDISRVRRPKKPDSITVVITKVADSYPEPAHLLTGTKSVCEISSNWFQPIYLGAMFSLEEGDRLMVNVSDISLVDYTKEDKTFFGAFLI

T11: mouse recombinant TL1A protein (mouse, UniProt Q5UBV8 76-252, limits assumed)
T11 construct: also called mouse TL1A; murine TL1A
T11 sequence (looked up): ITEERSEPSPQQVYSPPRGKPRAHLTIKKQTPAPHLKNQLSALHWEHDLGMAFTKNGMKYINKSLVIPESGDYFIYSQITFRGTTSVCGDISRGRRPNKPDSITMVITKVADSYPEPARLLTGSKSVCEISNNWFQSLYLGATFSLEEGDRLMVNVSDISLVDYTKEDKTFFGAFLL


Columns and labels:
[1] = molecular target: T1, TL1A in human blood; experiment: cell-based or functional assay
[2] = molecular target: T1, TL1A in human blood; experiment: cell-based or functional assay; remark: listed apart in the source
[3] = molecular target: T2, TNFSF6 (FasL); experiment: not named in the table (specificity row)
From the text: (§1) TL1A is the only known ligand for its functional receptor DR3. TL1A is also capable of binding to Decoy receptor 3 (DcR3), a soluble TNF receptor without a transmembrane domain.

[4] = molecular target: T12, TNFSF10 (human, UniProt P50591 114-281, limits assumed); experiment: not named in the table (specificity row)
T12 construct: also called TRAIL
From the text: as §1

[5] = molecular target: T3, Murine TL1A; experiment: not named in the table (TL1A binding affinity row)
[6] = molecular target: T4, human TL1A; experiment: ELISA titration on plate-coated human TL1A, unpurified culture supernatant
[7] = molecular target: T4, human TL1A; experiment: method not given; three independent measurements, +/- standard deviation
[8] = molecular target: T5, Cynomolgus TL1A; experiment: as above
[9] = molecular target: T6, TNFSF6 (FasL); experiment: ELISA
From the text: as §1

[10] = molecular target: TNFSF10 (TRAIL) (human, UniProt P50591 114-281, limits assumed); experiment: ELISA
From the text: as §1

[11] = molecular target: TNFSF14 (LIGHT) (UniProt O43557 74-240, limits assumed); experiment: ELISA
From the text: as §1

[12] = molecular target: T7, cynomolgus monkey TL1A protein; experiment: cell-based or functional assay
[13] = molecular target: T7, cynomolgus monkey TL1A protein; experiment: ELISA on recombinant TL1A protein; cynomolgus monkey TL1A
[14] = molecular target: T8, recombinant human TL1A protein (tumor …); experiment: surface plasmon resonance (SPR), recombinant TL1A protein
[15] = molecular target: T7, cynomolgus monkey TL1A protein; experiment: as above
[16] = molecular target: T9, membrane-bound human TL1A on …; experiment: binding to TNFSF15/HEK293 cells stably transfected with human TL1A
[17] = molecular target: T10, rat recombinant TL1A protein; experiment: ELISA, titration of the antibody on recombinant rat TL1A, A450 nm against [Ab] (nM), log axis
Experimental: (§2) ELISA for each protein was performed at least three times. The data from a representative experiment are shown and are mean±SD. Abbreviations: A=absorbance, Ab=antibody, Cyno=cynomolgus, nm=nanometer, nM=nanomolar. […] Samples were assayed in triplicate, on two separate occasions. Data presented are the mean TL1A concentrations of three animals per group±SD.

[18] = molecular target: T11, mouse recombinant TL1A protein; experiment: ELISA, titration of the antibody on recombinant mouse TL1A, A450 nm against [Ab] (nM), log axis
Experimental: as §2

Sequence of TNFSF10 (TRAIL) (P50591 114-281 limits assumed): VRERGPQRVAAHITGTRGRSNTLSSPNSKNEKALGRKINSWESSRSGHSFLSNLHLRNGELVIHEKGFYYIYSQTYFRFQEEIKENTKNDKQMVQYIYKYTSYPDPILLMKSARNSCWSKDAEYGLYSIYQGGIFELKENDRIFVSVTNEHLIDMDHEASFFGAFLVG
T12 sequence (P50591 114-281 limits assumed): as above
Sequence of TNFSF14 (LIGHT) (O43557 74-240 limits assumed): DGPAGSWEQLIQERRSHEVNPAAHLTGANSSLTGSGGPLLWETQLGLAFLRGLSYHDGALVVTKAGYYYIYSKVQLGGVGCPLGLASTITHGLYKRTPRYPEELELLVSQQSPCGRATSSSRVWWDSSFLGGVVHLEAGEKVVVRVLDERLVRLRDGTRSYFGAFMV

Binder	% Inhibition at 1 nM Ig; interferon gamma release in human blood [1]	% Inhibition at 10 nM Ig; interferon gamma release in human blood [1]	IC50 values, Mean; inhibition of interferon gamma release from multiple human donors [2]	binding result [3]	binding result [4]	binding result [5]	Kd [6]	Kd [7]	Kd [8]	binding result [9]	binding result [10]	binding result [11]	IC50 of inhibition of TL1A-induced caspase activation in cycloheximide-treated TF-1 cells [12]	mean IC50 of inhibition of IFN-gamma release in monkey whole blood stimulated with immune complex, IL-12 and IL-18 [12]	EC50 [13]	Kd [14]	Kd [15]	EC50 [16]	binding result [17]	binding result [18]
A219 (antibody, V domains shown, IgG1) VH: QVQLVQSGAEVKKPGASVKVSCKASGFDIQDTYMHWVKQRPGQGLEWMGRIDPASGHTKYDPKFQVRVTITRDTSTSTVYLELSSLRSEDTAVYYCARSGGLPDVWGQGTTVTVSS VL: EIVLTQSPGTLSLSPGERATLSCRASSSVSYMYWYQQKPGQAPRPLIYATSNLASGIPDRFSGSGSGTDFTLTISRLEPEDFAVYYCQQWEGNPRTFGGGTKLEIK	59.8%	75.2%	48.6	no binding	no binding	no binding	0.05 nM	0.059 nM	0.0363 nM	–	–	–	–	–	–	–	–	–	–	–
anti-TL1A antibody A219 (antibody, V domains shown, Humanized monoclonal IgG1 with a kappa light chain, designed to abolish effector functions) VH: QVQLVQSGAEVKKPGASVKVSCKASGFDIQDTYMHWVKQRPGQGLEWMGRIDPASGHTKYDPKFQVRVTITRDTSTSTVYLELSSLRSEDTAVYYCARSGGLPDVWGQGTTVTVSS VL: EIVLTQSPGTLSLSPGERATLSCRASSSVSYMYWYQQKPGQAPRPLIYATSNLASGIPDRFSGSGSGTDFTLTISRLEPEDFAVYYCQQWEGNPRTFGGGTKLEIK	–	–	–	–	–	–	–	–	–	no binding	no binding	no binding	0.59 nM	1.54 nM	0.47 nM	0.06 nM	0.04 nM	17.4 nM	no binding (tested: about 30 nM)	no binding (tested: about 30 nM)
